In the supplement of paper PMC9732359:
± gives the uncertainty stated by the source.

Experiment: protein stability index of a GFP-peptide fusion (yeast GPS) (PSI 1-4); higher = more stable; sorted into four equal gates, so the index is relative within each strain
Settings: pdr5∆
How it was run: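 For each peptide, the protein stability index sums the read frequency in every gate after multiplying it by the gate number. Read frequencies came from plasmids that were PCR-amplified from each gate and Illumina-sequenced, with reads assigned to strains by barcodes. The gates were four equal bins of GFP/Cherry fluorescence ratio applied to mid-log yeast in leucine-free medium carrying a pooled library of tiled 17-residue yeast protein peptides fused downstream of GFP on a Cherry-expressing plasmid.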

In order of rising protein stability index:
1. LPYERHMISQEGIKETQ [SWI1]  1.23 ± 0.073
2. LPHSPLWELALAFIPNI [YML031W/NDC1]  1.25 ± 0.044
3. LTKKYSFKIFVDVLVIS [RRP42]  1.25 ± 0.051
4. LNWFRTTNMNVNNCIWA [RGR1]  1.34 ± 0.045
5. LTCSLYELYINKLTILG [IRR1]  1.36 ± 0.04
6. LQYYILEYMNTARINNR [RRI2]  1.37 ± 0.097
7. LRSTIANLLQINVDNDP [YML103C/NUP188]  1.4 ± 0.13
8. LSLQRANVEILAVEDKP [CSL4]  1.44 ± 0.061
9. LMLGSVNLPGGILRRKS [RRP4]  1.46 ± 0.11
10. LQQKQQQRFQALQQQQQ [SWI1]  1.53 ± 0.047
11. LNISPFTFGLTVVQVYD [RPP0]  1.61 ± 0.052
12. LTLLERKWVIFITKHLP [NUT1]  1.68 ± 0.064
13. LPLPPSVEWMKVSPSMC [SIN4]  1.71 ± 0.05
14. LRLLLLLIEFPYLPKHY [YJR042W/NUP85]  1.72 ± 0.054
15. LTSGLLYSYLIKENFFE [YJL039C/NUP192]  1.74 ± 0.14
16. LNYGNICEPKETLSIFT [YJL039C/NUP192]  1.75 ± 0.056
17. LMAQIFFGPTYYQRLRH [RPB2]  1.81 ± 0.032
18. LMEASDAFRVHICGICG [RPB2]  1.83 ± 0.098
19. LPRCSKEEFRLMISPKD [RRI2]  1.88 ± 0.063
20. LRPLFTRYELYIKNILE [YLR335W/NUP2]  1.88 ± 0.044
21. LSQLCAVPLQIVSPQSN [RPO21]  1.91 ± 0.058
22. LSRPSLPKIKTVRKSIA [RPL35A]  1.94 ± 0.073
23. LQKQMGIGSLTDLMSIV [RPC34]  2.04 ± 0.13
24. LPFYAILRSIPDKLLGV [COB]  2.07 ± 0.039
25. LRYVIMKNPDVEFCGYS [RPC19]  2.07 ± 0.081
26. LRRVEERFTKSKTLSLI [FAS1]  2.09 ± 0.059
27. LPLFYDLLNAASIESAD [IRR1]  2.17 ± 0.056
28. LPFMQNAGPNSNIPNLL [YDL088C/ASM4]  2.18 ± 0.04
29. LQQICRVRNKDIRKFLD [RPL9A]  2.2 ± 0.074
30. LRLSNFFTIDHFIQKLH [SIR2]  2.2 ± 0.07
31. LNSYHIKNGRIYFTVPN [RGR1]  2.21 ± 0.035
32. LRIVKPTVSLTINLDRF [RPC82]  2.29 ± 0.054
33. LSTSEDVSIEELLREWL [IRR1]  2.31 ± 0.21
34. LMRQGVLGIKVKIMRDP [RPS3]  2.33 ± 0.074
35. LTLDPRYIWRSLKDLSS [RPN3]  2.39 ± 0.29
36. LTLKEAELLVLKILKQV [PUP2]  2.4 ± 0.26
37. LLWTPKKLEITSDGALS [RPR2]  2.42 ± 0.048
38. LQLASLQQKQRDLILKK [SMC3]  2.46 ± 0.16
39. LNCCGSVARVEDHDVHS [IRR1]  2.49 ± 0.065
40. LPNQIPGEYITTIKAIF [YMR129W/POM152]  2.51 ± 0.055
41. LSIDKVLKKPNRAMEYD [RET1]  2.56 ± 0.16
42. LPSHIISTSDVTRIINS [RPL4A]  2.66 ± 0.038
43. LMEIHNILKVDSNSSSS [RGR1]  2.67 ± 0.06
44. LSVVKYLLASLKDSKDF [RPN9]  2.67 ± 0.16
45. LSQSRIKIKSLEYEISK [YIL149C/MLP2]  2.68 ± 0.055
46. LQYIIHDTLNNEIANSI [BRR2]  2.69 ± 0.076
47. LRNVFLGKCSRITDASL [GRR1]  2.81 ± 0.097
48. LQVLKRERDGIKEDIEK [SMC1]  2.85 ± 0.12
49. LTIKDIVLGVKDLQENL [RPO21]  2.86 ± 0.29
50. LPLYEKNTLLERLKQLT [SWP82]  2.87 ± 0.088
51. LRKIQALRDVKNNNNAN [GAL11]  2.87 ± 0.097
52. LQHLRSRCHLVTKDTKK [SRP68]  2.88 ± 0.11
53. LNEMLNTRKNMSISLES [DIS3]  2.91 ± 0.066
54. LNHILEKSTQLQQKHEL [YGR119C/NUP57]  2.91 ± 0.042
55. LSEATESDLYKLKECPF [RPB2]  2.91 ± 0.19
56. LRRASATVPSAPYRKQI [YAR002W/NUP60]  2.93 ± 0.11
57. LRSDIPCLSRSCTKCPQ [DIS3]  2.94 ± 0.04
58. LQQELATTQDQVASIIE [NUT2]  2.95 ± 0.043
59. LSGNPLTSVTNDICSVE [SIR4]  2.95 ± 0.064
60. LPKYKEKKAASAKQTAP [MED7]  2.97 ± 0.078
61. LPLWHLLNRIPRMYHIG [POP1]  2.97 ± 0.15
62. LSVMCGCGTVKRFNIGA [RPR2]  2.97 ± 0.12
63. LQLAPGAHLGRFVIWTE [RPL4A]  2.98 ± 0.22
64. LQELIVNGPNVHPGANY [RPO31]  2.99 ± 0.092
65. LNAKYQSLGLDDLQKFN [ISW2]  3 ± 0.061
66. LQEAIDFAQKEINGDDD [PRE10]  3 ± 0.079
67. LSIAFENGDYAACEKLL [RPN12]  3 ± 0.12
68. LSLGMDFIKFDQIAVCE [BRN1]  3.01 ± 0.079
69. LTNLLSQLNIQLSQDEH [SRP72]  3.03 ± 0.051
70. LPTRGTLESLENLVVAD [COR1]  3.04 ± 0.053
71. LRNKLIESNKLAGVLYE [RRP6]  3.04 ± 0.21
72. LSFGTATSDNKTTNTTP [YJL041W/NSP1]  3.05 ± 0.083
73. LTQLLSMMSDGIEHFDI [RPO31]  3.05 ± 0.085
74. LRSNKCILYDADESKMA [RET1]  3.07 ± 0.18
75. LSSDDLLGKESFKKIIK [YCS4]  3.08 ± 0.22
76. LSAEYLVILKPDLNIDR [SIN4]  3.1 ± 0.1
77. LSIELEGGKNQAELLQL [YJL039C/NUP192]  3.11 ± 0.099
78. LNKEKLGPLFKKIVDDT [IRR1]  3.12 ± 0.12
79. LTLQEDYIKDEQRHLKR [RPT3]  3.18 ± 0.081
80. LQNNSDSESDSDSETNH [SKP1]  3.19 ± 0.074
81. LTDKDAFETHYRRLFAK [CDC53]  3.19 ± 0.067
82. LSAVAQAESMKFKLLNG [RPS3]  3.21 ± 0.1
83. LNLDSEQTVEYMVSRAI [RPN3]  3.22 ± 0.3
84. LQEKEQLYFKKKVNYKV [ISW2]  3.23 ± 0.15
85. LSNEFTATNSKGEQIAI [ECM29]  3.25 ± 0.12
86. LSESLTKFFDDAKSTPL [RPN9]  3.26 ± 0.069
87. LQPVIPGGAASKSVPTP [SNF5]  3.28 ± 0.062
88. LSEYLTKFQTTDRESYP [YCS4]  3.28 ± 0.2
89. LSGVSNSMDMVDGMAKV [RGR1]  3.29 ± 0.11
90. LSINKNFINQEDEGEER [RPC17]  3.29 ± 0.28
91. LNVVLDDAMEINGEDPA [SMX2]  3.31 ± 0.07
92. LPAYSGEIGDFFSSDWR [POP1]  3.32 ± 0.089
93. LSEYDAIQKKDNKDKEG [YOR098C/NUP1]  3.33 ± 0.097
94. LTSDLVYFGDENKVMLP [RRI2]  3.34 ± 0.089
95. LSYYVEETNVDIGVLEE [SMC4]  3.38 ± 0.22
96. LNLQFKAKVDDLVLGKP [YLR335W/NUP2]  3.39 ± 0.18
97. LRGEYNDLQSETKTKKE [SMC4]  3.4 ± 0.087
98. LRELDVELIESKINELS [SMC4]  3.47 ± 0.077
99. LSFINPKTGKVERSEAI [SEC65]  3.47 ± 0.081
100. LPGTEKGRKTNKYANND [CSL4]  3.5 ± 0.13
101. LRGSLLSRKPSDNKKRS [RPC82]  3.6 ± 0.14
102. LSEDELRELDVELIESK [SMC4]  3.72 ± 0.24
